In this assay the target is T1, MASP-1 (MBL-associated serine protease 1) (human, UniProt P48740 20-699).
T1 sequence (looked up): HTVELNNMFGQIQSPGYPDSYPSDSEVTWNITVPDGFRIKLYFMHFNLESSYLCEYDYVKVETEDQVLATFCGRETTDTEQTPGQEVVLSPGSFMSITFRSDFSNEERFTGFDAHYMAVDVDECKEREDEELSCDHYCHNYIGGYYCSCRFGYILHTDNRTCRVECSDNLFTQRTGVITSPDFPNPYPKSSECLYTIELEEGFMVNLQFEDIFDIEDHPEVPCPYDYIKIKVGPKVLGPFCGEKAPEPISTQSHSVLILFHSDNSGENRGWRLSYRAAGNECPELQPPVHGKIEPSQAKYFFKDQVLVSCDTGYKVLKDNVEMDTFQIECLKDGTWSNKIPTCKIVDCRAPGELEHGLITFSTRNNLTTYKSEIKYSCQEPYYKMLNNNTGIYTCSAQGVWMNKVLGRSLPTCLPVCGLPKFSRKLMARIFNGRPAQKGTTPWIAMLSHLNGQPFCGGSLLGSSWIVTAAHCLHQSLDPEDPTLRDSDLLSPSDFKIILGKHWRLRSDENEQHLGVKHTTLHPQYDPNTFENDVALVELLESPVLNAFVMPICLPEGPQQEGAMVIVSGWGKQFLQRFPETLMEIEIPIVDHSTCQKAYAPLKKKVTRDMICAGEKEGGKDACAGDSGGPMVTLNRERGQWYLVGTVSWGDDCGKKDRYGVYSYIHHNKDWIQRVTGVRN
In words: co-capture on anti-MASP-1-coated wells, eluate blotted with anti-pMASP-3.

B1: mannan binding lectin-associated serine protease 3 (MASP-3), natural protein from human plasma/serum (enzyme)
chain: HTVELNNMFGQIQSPGYPDSYPSDSEVTWNITVPDGFRIKLYFMHFNLESSYLCEYDYVKVETEDQVLATFCGRETTDTEQTPGQEVVLSPGSFMSITFRSDFSNEERFTGFDAHYMAVDVDECKEREDEELSCDHYCHNYIGGYYCSCRFGYILHTDNRTCRVECSDNLFTQRTGVITSPDFPNPYPKSSECLYTIELEEGFMVNLQFEDIFDIQDHPEVPCPYDYIKIKVGPKVLGPFCGEKAPEPISTQSHSVLILFHSDNSAENRGWRLSYRAAGNECPELQPPVHGKIEPSQAKYFFKDQVLVSCDTGYKVLKDNVEMDTFQIECLKDGTWSNKIPTCKIVDCRAPGELEHGLITFSTRNNLTTYKSEIKYSCQEPYYKMLNNNTGIYTCSAQGVWMNKVLGRSLPTCLPECGQPSRSLPSLVKRIIGGRNAEPGLFPWQALIVVEDTSRVPNDKWFGSGALLSASWILTAAHVLRSQRRDTTVIPVSKEHVTVYLGLHDVRDKSGAVNSSAARVVLHPDFNIQNYNHDIALVQLQEPVPLGPHVMPVCLPRLEPEGPAPHMLGLVAGWGISNPNVTVDEIISSGTRTLSDVLQYVKLPVVPHAECKTSYESRSGNYSVTENMFCAGYYEGGKDTCLGDSGGAFVIFDDLSQRWVVQGLVSWGGPEECGSKQVYGVYTKVSNYVDWVWEQMGLPQSVVEPQVER
notes: Natural protein in lectin preparations, MBL complexes or serum; On reducing blots only the B chain is seen; also called MBL-associated serine protease-3; lectin associated serine protease 110
With B1, the binding result is given as “no binding”.

Values taken from US20030186419A1 (published 2003).
